In patent publication US20110217237A1 (AbbVie / Abbott, published 2011):
Like-named read-outs stand apart in the source and are kept apart here.

Tests used:
[1] = molecular target: human DLL4, full length, on cells (human, UniProt Q9NR61 27-685); assay: cell-based or functional assay
[2] = molecular target: T1, human DLL4 extracellular domain (human, UniProt Q9NR61 27-529); assay: SPR (Biacore)
T1 construct: purified recombinant ECD; biotin-labelled or 6xHis-tagged depending on the assay; also called huDLL4 ECD; hu DLL4 ECD
T1 sequence (Q9NR61 27-529 limits assumed): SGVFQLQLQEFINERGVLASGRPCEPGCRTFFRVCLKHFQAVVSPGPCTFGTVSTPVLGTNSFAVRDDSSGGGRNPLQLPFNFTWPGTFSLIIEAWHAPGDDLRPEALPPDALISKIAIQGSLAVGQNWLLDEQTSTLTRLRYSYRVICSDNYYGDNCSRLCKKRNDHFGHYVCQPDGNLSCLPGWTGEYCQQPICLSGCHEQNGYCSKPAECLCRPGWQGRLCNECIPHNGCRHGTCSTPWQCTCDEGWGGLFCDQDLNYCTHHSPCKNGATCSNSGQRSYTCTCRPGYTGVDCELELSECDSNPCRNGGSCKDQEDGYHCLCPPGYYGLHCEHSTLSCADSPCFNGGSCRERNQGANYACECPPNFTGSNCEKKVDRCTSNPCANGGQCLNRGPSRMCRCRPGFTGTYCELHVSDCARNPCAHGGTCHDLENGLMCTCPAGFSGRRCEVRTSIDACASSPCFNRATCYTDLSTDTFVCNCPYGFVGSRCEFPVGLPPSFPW
Description: (§1) The BIACORE® surface plasmon resonance assay (Biacore, Inc., Piscataway, N.J., US) determines the affinity of antibodies with kinetic measurements of on-rate and off-rate constants. Binding of DLL4 antibodies to a purified recombinant DLL4 extracellular domain (ECD) was determined by surface plasmon resonance-based measurements with a Biacore® instrument (either a Biacore 2000, Biacore 3000, or Biacore T100; GE Healthcare, Piscataway, N.J., US) using running buffer HBS-EPB (10 mM HEPES [pH 7.4], 150 mM NaCl, 3 mM EDTA, 0.1 mg/ml BSA and 0.005% surfactant P20) at 25° C. For example, approximately 9000 RU of goat anti-human Fc specific polyclonal antibody (Thermo Fisher Scientific Inc., Rockford, Ill., US) diluted in 10 mM sodium acetate (pH 4.5) is directly immobilized across a CMS research grade biosensor chip using a standard amine coupling kit according to manufacturer's instructions and procedures at 25 μg/ml. Unreacted moieties on the biosensor surface were blocked with ethanolamine. For kinetic analysis, rate equations derived from the 1:1 Langmuir binding model were fitted simultaneously to multiple antigen injections (using global fit analysis) with the use of Scrubber 2 (BioLogic Software), Biacore Biaevaluation 4.0.1 software or Biacore T100 Evaluation software. Purified antibodies were diluted in running buffer for capture across goat anti-human Fc reaction surfaces. Antibodies to be captured as a ligand (1 μg/ml) were injected over reaction matrices at a flow rate of 10 μl/min. During the assay, all measurements were referenced against the capture surface alone (i.e., with no captured anti-DLL4 antibody). […] The equilibrium dissociation constant KD (M) of the reaction between antibodies and the target antigen was then calculated from the kinetic rate constants by the following formula: KD=Koff/Kₒₙ. Binding was recorded as a function of time and kinetic rate constants were calculated.

[3] = molecular target: T2, mouse DLL4 extracellular domain (mouse, UniProt Q9JI71 27-532); assay: SPR (Biacore)
T2 construct: extracellular domain; also called muDLL4 ECD; murine DLL4
T2 sequence (Q9JI71 27-532): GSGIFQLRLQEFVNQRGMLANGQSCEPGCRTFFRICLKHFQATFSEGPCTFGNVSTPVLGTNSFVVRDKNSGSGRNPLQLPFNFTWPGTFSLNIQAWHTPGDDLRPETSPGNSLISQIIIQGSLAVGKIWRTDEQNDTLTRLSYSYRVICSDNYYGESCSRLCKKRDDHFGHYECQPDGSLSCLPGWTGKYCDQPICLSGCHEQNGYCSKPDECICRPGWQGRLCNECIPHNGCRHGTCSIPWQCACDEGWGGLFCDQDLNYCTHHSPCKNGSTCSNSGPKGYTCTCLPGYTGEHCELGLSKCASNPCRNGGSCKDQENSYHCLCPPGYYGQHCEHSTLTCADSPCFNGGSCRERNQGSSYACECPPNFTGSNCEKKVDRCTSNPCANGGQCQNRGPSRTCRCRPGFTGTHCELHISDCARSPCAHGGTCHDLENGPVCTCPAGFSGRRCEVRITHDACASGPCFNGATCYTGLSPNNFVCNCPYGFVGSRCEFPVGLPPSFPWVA
Description: as §1

[4] = molecular target: T1, human DLL4 extracellular domain; assay: binding ELISA
Description: (§2) Plates were then washed 3 times. 100 μl/well of recombinant rat/human chimeric or recombinant human anti-DLL4 antibodies were then added to the plate (0.00164-27 nM, 4-fold serial dilution in ELISA buffer=PBST, 10% Superblock (Pierce #37515)) for 1 hour at 25° C. with shaking and then washed again 3 times. Plates were incubated with goat anti-human HRP (Pierce #31412) (1:40,000 dilution in ELISA buffer, 100 μl/well) for 1 hour at 25° C. with shaking, then washed 3 times. After the final wash, plates were incubated with 100 μl/well ELISA substrate (Sigma #T8665). The reaction was stopped after 8 minutes at 25° C. with 100 μl/well 1N HCl and the absorbance was read at 450 nm. Data were analyzed using Graphpad Prism software, and EC50 values were reported.
(§3) Purified variants were further characterized for their affinities for human, murine and cynomolgus DLL4 by binding ELISA (Example 1.2, Method 2), by Biacore (Example 1.1), and by Flow Cytometry (FACS). […] The humanized variants were then tested for their functionality with human and murine DLL4 by competition ELISA (Example 1.3) and by Notch reporter assay (Example 1.6).

[5] = molecular target: T3, cynomolgus monkey DLL4 extracellular domain (cynomolgus monkey); assay: binding ELISA
T3 construct: extracellular domain; also called cynoDLL4 ECD; Cyno DLL4
Description: as §2, §3

[6] = molecular target: T2, mouse DLL4 extracellular domain; assay: binding ELISA
Description: as §2, §3

[7] = molecular target: T1, human DLL4 extracellular domain; assay: competition ELISA vs Notch-1
Description: (§4) Plates were then washed 3 times with wash buffer (PBS, 0.05% Tween-20) and blocked with 200 μl/well blocking buffer (D-PBS, 1% BSA, 1 mM CaCl₂, 0.05% Tween-20) for 1 hour at 25° C. While blocking, biotin labeled DLL4 extracellular domain (14 nM) was mixed with antibody (30 pM-66 nM, 3-fold serial dilution in blocking buffer) for 1 hour at 25° C. with shaking. Assay plates were washed after blocking, and incubated with DLL4/antibody mixtures (100 μl/well, 1 hour at 25° C. with shaking). Plates were washed again and 100 μl/well streptavidin conjugated with HRP (Fitzgerald #65R-S104PHRPx, diluted 1:5,000 in blocking buffer) was added for 1 hour at 25° C. with shaking. After a final wash, plates were developed using 100 μl/well substrate (TMB Sigma #T8665), and the reaction was stopped using 100 μl/well 1N HCl, and the absorbance was read at 450 nm. Data were analyzed using Graphpad Prism software and IC₅₀ values were reported as the concentration of antibody to achieve 50% reduction of DLL4 bound to Notch1.
as §3

[8] = molecular target: T2, mouse DLL4 extracellular domain; assay: competition ELISA vs Notch-1
Description: as §4, §3

[9] = molecular target: T4, rat DLL4 extracellular domain (rat, UniProt D3ZHH1 28-530); assay: SPR (Biacore)
T4 construct: extracellular domain; also called ratDLL4 ECD
T4 sequence (D3ZHH1 28-530): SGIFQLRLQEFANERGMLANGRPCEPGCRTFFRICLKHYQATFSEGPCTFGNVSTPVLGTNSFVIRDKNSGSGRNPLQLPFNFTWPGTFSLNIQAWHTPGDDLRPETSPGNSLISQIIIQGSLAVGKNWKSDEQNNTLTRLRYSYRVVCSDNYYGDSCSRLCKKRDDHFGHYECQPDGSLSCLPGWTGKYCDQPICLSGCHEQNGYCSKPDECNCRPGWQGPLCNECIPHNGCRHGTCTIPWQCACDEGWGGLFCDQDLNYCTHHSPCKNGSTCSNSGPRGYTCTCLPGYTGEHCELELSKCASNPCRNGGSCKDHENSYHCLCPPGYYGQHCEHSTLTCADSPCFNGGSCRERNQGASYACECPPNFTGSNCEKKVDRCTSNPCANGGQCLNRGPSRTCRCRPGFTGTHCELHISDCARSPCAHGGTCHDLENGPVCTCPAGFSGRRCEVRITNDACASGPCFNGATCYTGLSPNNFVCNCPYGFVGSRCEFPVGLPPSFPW
Description: as §1

[10] = molecular target: T2, mouse DLL4 extracellular domain; assay: SPR (Biacore); remark: listed apart in the source
Description: as §1

[11] = molecular target: T1, human DLL4 extracellular domain; assay: SPR (Biacore); remark: listed apart in the source
Description: as §1

[12] = molecular target: T3, cynomolgus monkey DLL4 extracellular …; assay: SPR (Biacore)
Description: as §1

[13] = molecular target: T1, human DLL4 extracellular domain; assay: capture ELISA, biotin-huDLL4 ECD

human DLL4, full length, on cells, sequence (Q9NR61 27-685 limits assumed): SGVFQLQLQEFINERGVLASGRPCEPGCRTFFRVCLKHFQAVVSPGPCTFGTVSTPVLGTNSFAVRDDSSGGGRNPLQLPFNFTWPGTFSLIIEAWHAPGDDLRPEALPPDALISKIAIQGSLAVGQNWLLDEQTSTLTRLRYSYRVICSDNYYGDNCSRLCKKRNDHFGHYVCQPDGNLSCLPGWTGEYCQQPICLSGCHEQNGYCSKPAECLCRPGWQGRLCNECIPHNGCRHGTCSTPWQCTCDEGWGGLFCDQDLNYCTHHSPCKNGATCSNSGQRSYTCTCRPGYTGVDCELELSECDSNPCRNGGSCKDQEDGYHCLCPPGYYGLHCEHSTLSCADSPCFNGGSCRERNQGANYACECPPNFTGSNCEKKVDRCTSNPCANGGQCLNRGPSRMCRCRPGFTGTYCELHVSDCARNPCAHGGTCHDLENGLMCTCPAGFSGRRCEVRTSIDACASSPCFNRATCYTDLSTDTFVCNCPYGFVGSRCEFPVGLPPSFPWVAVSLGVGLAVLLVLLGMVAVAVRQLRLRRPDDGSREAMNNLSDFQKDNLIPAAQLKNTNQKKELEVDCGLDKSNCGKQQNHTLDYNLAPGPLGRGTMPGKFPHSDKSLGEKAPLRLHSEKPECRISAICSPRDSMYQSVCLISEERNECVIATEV

Row | Binder | Reporter Assay (EC50, nM) [1] [nM] | Kd [2] [nM] | Kd [3] [nM] | EC50 [4] [nM] | EC50 [5] [nM] | EC50 [6] [nM] | IC50 [7] [nM] | IC50 [8] [nM] | also measured
1 | h1A11.11 (antibody, V domains shown, humanized IgG; also called VH.1b/VL.1b 1A11) VH: EVQLVESGGGLVQPGGSLRLSCAASGFTFSNFPMAWVRQAPGKGLEWVATISSSDGTTYYRDSVKGRFTISRDNAKNSLYLQMNSLRAEDTAVYYCSRGYYNSPFAYWGQGTLVTVSS VL: DIQMTQSPSSLSASVGDRVTITCRASEDIYSNLAWYQQKPGKAPKLLIFDTNNLADGVPSRFSGSGSGTDFTLTISSLQPEDFATYYCQQYNNYPPTFGQGTKLEIKR | 3.73 | 12 | 27 | 0.07 | 0.15 | 0.09 | 0.4 | 0.8 | –
2 | h1A11.12 (antibody, V domains shown, humanized IgG; also called VH.1b/VL.2a 1A11) VH: EVQLVESGGGLVQPGGSLRLSCAASGFTFSNFPMAWVRQAPGKGLEWVATISSSDGTTYYRDSVKGRFTISRDNAKNSLYLQMNSLRAEDTAVYYCSRGYYNSPFAYWGQGTLVTVSS VL: EIVMTQSPATLSVSPGERATLSCRASEDIYSNLAWYQQKPGQSPRLLIFDTNNLADGVPARFSGSGSGTESTLTISSLQSEDFAVYFCQQYNNYPPTFGQGTKLEIKR | 2.89 | 14 | 35 | 0.06 | 0.16 | 0.08 | 0.4 | 0.9 | –
3 | h1A11.B5 (antibody, V domains shown, also called h1A11.B5 VH / h1A11.B5 VL) VH: EVQLVESGGGLVQPGGSLRLSCAASGFTFRYFPMSWVRQAPGKGLEWVASISGSDGWASYRDSVKGRFTISRDNAKNSLYLQMNSLRAEDTAVYYCARGYYNSPFASWGQGTLVTVSS VL: DIQMTQSPSSLSASVGDRVTITCRASQDIWNNLAWYQQKPGKSPKLLIFDTSYLADGVPSRFSGSGSGTDFTLTISSLQPEDFATYYCQQYDWYPPTFGQGTKLEIK | – | – | – | – | – | – | – | – | Kd [9]: 410 nM; koff [9]: 0.0397 s⁻¹; kon [9]: 98200 M⁻¹ s⁻¹; Kd [10]: 1.2 nM; koff [10]: 0.000166 s⁻¹; kon [10]: 145000 M⁻¹ s⁻¹; Kd [11]: 1 nM; koff [11]: 0.000134 s⁻¹; kon [11]: 130000 M⁻¹ s⁻¹; Kd [12]: 1.5 nM; koff [12]: 0.000178 s⁻¹; kon [12]: 117000 M⁻¹ s⁻¹
4 | h1A11.13 (antibody, V domains shown, humanized IgG; also called VH.2a/VL.1 1A11) VH: EVQLVESGGGLVQPGGSLRLSCAASGFTFSNFPMAWVRQAPGKGLEWVATISSSDGTTYYRDSVKGRFTISRDNSKSTLYLQMNSLRAEDTAVYYCSRGYYNSPFAYWGQGTLVTVSS VL: DIQMTQSPSSLSASVGDRVTITCRASEDIYSNLAWYQQKPGKAPKLLIYDTNNLADGVPSRFSGSGSGTDFTLTISSLQPEDFATYYCQQYNNYPPTFGQGTKLEIKR | 10.4 | 14 | 37 | 0.06 | 0.16 | 0.09 | 0.3 | 1 | –
5 | h1A11.14 (antibody, V domains shown, humanized IgG; also called VH.2a/VL.1a 1A11) VH: EVQLVESGGGLVQPGGSLRLSCAASGFTFSNFPMAWVRQAPGKGLEWVATISSSDGTTYYRDSVKGRFTISRDNSKSTLYLQMNSLRAEDTAVYYCSRGYYNSPFAYWGQGTLVTVSS VL: DIQMTQSPSSLSASVGDRVTITCRASEDIYSNLAWYQQKPGKSPKLLIFDTNNLADGVPSRFSGSGSGTDSTLTISSLQPEDFATYFCQQYNNYPPTFGQGTKLEIKR | 4.1 | 13 | 28 | 0.055 | 0.14 | 0.07 | 0.25 | 0.7 | –
6 | h1A11.10 (antibody, V domains shown, humanized IgG; also called VH.1b/VL.1a 1A11) VH: EVQLVESGGGLVQPGGSLRLSCAASGFTFSNFPMAWVRQAPGKGLEWVATISSSDGTTYYRDSVKGRFTISRDNAKNSLYLQMNSLRAEDTAVYYCSRGYYNSPFAYWGQGTLVTVSS VL: DIQMTQSPSSLSASVGDRVTITCRASEDIYSNLAWYQQKPGKSPKLLIFDTNNLADGVPSRFSGSGSGTDSTLTISSLQPEDFATYFCQQYNNYPPTFGQGTKLEIKR | 5.88 | 13 | 35 | 0.06 | 0.15 | 0.09 | 0.35 | 0.9 | –
7 | h38H12.2 (antibody, V domains shown, humanized IgG; also called VH.1/VL.1a 38H12) VH: EVQLVESGGGVVQPGRSLRLSCAASGFTFSNYGMYWVRQAPGKGLEWVAFISHGGGITYYRDSVKGRFTISRDNSKNTLYLQMNSLRAEDTAVYYCARLNWELGIDYWGQGTMVTVSS VL: DIQMTQSPSSLSASVGDRVTITCRASEDIYSNLAWYQKKPGKSPKLLIYAANRLQDGVPSRFSGSGSGTDYTLTISSLQPEDFATYFCLQGSKFPLTFGQGTKLEIKR | – | – | – | – | – | – | – | – | EC50 [13]: 26.9 nM
8 | h38H12.3 (antibody, V domains shown, humanized IgG; also called VH.1/VL.1b 38H12) VH: EVQLVESGGGVVQPGRSLRLSCAASGFTFSNYGMYWVRQAPGKGLEWVAFISHGGGITYYRDSVKGRFTISRDNSKNTLYLQMNSLRAEDTAVYYCARLNWELGIDYWGQGTMVTVSS VL: DIQMTQSPSSLSASVGDRVTITCRASEDIYSNLAWYQQKPGKAPKLLIYAANRLQDGVPSRFSGSGSGTDYTLTISSLQPEDFATYYCLQGSKFPLTFGQGTKLEIKR | – | – | – | – | – | – | – | – | EC50 [13]: 5.57 nM

Now from value to binder, other results behind:

Row | Reporter Assay (EC50, nM) [1] [nM] | Kd [2] [nM] | Kd [3] [nM] | EC50 [4] [nM] | EC50 [5] [nM] | EC50 [6] [nM] | IC50 [7] [nM] | IC50 [8] [nM] | Binder | also measured
9 | 2.61 | 15 | 39 | 0.06 | 0.12 | 0.09 | 0.3 | 0.7 | h1A11.16 (antibody, V domains shown, humanized IgG; also called VH.2a/VL.2a 1A11) VH: EVQLVESGGGLVQPGGSLRLSCAASGFTFSNFPMAWVRQAPGKGLEWVATISSSDGTTYYRDSVKGRFTISRDNSKSTLYLQMNSLRAEDTAVYYCSRGYYNSPFAYWGQGTLVTVSS VL: EIVMTQSPATLSVSPGERATLSCRASEDIYSNLAWYQQKPGQSPRLLIFDTNNLADGVPARFSGSGSGTESTLTISSLQSEDFAVYFCQQYNNYPPTFGQGTKLEIKR | –
10 | 5.4 | 14 | 37 | 0.07 | 0.13 | 0.09 | 0.2 | 0.7 | h1A11.15 (antibody, V domains shown, humanized IgG; also called VH.2a/VL.1b 1A11) VH: EVQLVESGGGLVQPGGSLRLSCAASGFTFSNFPMAWVRQAPGKGLEWVATISSSDGTTYYRDSVKGRFTISRDNSKSTLYLQMNSLRAEDTAVYYCSRGYYNSPFAYWGQGTLVTVSS VL: DIQMTQSPSSLSASVGDRVTITCRASEDIYSNLAWYQQKPGKAPKLLIFDTNNLADGVPSRFSGSGSGTDFTLTISSLQPEDFATYYCQQYNNYPPTFGQGTKLEIKR | –
